From US20230364248A1 (Novo Nordisk, published 2023)

Biological target: full length MIC-1 receptor (hGFRAL) and its full signaling co-receptor hRET51, stably expressed in BHK21 cells (human, UniProt Q6UXV0 19-394; P07949 29-1114)
Test: cell-based or functional assay

Chain of full length MIC-1 receptor (hGFRAL) and its full signaling co-receptor hRET51, stably expressed in BHK21 cells (Q6UXV0 19-394, chain 1 of 2): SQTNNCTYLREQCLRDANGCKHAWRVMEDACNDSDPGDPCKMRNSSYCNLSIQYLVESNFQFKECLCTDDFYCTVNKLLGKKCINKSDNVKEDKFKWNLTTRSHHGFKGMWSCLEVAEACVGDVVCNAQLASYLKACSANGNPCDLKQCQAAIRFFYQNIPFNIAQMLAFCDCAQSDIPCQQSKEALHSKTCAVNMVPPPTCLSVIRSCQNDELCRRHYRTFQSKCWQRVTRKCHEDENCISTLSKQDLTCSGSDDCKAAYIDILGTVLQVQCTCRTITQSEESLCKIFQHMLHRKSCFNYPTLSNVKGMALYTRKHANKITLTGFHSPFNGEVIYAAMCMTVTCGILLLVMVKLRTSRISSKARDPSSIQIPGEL
Chain of full length MIC-1 receptor (hGFRAL) and its full signaling co-receptor hRET51, stably expressed in BHK21 cells (P07949 29-1114, chain 2 of 2): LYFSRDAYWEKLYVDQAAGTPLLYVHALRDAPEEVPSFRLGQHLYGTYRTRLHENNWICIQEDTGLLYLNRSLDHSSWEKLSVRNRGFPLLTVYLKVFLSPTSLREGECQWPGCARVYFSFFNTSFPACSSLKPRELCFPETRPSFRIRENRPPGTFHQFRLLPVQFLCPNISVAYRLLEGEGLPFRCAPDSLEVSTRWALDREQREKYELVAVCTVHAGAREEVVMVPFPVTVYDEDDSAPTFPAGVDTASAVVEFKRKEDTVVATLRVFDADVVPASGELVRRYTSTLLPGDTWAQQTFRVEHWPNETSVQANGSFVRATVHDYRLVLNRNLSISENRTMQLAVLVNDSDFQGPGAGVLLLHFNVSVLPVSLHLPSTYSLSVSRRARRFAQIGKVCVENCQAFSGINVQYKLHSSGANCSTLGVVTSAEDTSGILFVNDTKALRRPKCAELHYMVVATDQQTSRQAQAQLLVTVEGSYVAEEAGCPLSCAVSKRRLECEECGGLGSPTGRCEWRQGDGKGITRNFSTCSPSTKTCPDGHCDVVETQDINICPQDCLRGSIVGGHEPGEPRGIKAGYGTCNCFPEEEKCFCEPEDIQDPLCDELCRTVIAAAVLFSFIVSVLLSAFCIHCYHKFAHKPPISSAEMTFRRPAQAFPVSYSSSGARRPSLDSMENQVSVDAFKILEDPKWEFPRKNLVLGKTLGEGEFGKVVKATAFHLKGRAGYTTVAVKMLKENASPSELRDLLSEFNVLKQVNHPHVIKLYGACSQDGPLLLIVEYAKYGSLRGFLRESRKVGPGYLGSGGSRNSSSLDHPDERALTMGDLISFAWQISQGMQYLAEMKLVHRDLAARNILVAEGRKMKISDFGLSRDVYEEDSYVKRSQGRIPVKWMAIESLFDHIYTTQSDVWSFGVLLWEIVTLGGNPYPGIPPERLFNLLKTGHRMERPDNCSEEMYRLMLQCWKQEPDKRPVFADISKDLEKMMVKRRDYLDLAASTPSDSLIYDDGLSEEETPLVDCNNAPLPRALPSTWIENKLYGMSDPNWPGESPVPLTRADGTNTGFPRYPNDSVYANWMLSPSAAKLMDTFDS

B1: MIC-1 (SEQ ID NO: 1) (ligand)
chain: ARNGDHCPLGPGRCCRLHTVRASLEDLGWADWVLSPREVQVTMCIGACPSQFRAANMHAQIKTSLHRLKPDTVPAPCCVPASYNPMVLIQKTDTGVSLQTYDDLLAKDCHCI
Emax: 100%
